Assay: yeast display, Sf9 membrane polyspecificity reagent, FACS + sequencing; frameworks hold sequencing errors
Procedure, shortened: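 Nanobodies from a synthetic yeast display library (Saccharomyces cerevisiae BJ5465), induced 36–48 hours with galactose, were stained 1 hour at 4 °C with 10% biotinylated, detergent-solubilized Sf9 membrane reagent, enriched on streptavidin microbeads, then FACS-sorted. Anti-HA (expression) and streptavidin (reagent binding) fluorescence set low and high (top ~1%) gates. Polyreactivity labels come from the gate of origin. Genes were colony-PCR amplified, MiSeq 2 × 250 sequenced and filtered by CDR length.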

Row | Sequence | polyreactivity (PSR sort gate)
1 | QVQLVESGGGLVQAGGSLRLSCAASGRIFYPYAMGLYRQAPGKEREFVADISSAGSTYYADSVKGRFTISRDNAKNTVYLQMNSLKPEDTAVYYCAADRTSGAYYFRFLYDRDYWGQGTQVTVSS | low polyreactivity
2 | QVQLVESGGGLVQAGGSLRLSCAASGSTYATNAMRWYRQAPGKERELVATISWSGGSTYYADSVKGRFTISRDNAKNTVYLQMNSLKPEDTAVYYCAADWSNLGAYDYWGQGTQVTVSS | low polyreactivity
3 | QVQLVESGGGLVQAGGSLRLSCAASGRTFDSYTMGWYRQAPGKERELVADITFTGGSTYYADSVKGRFTISRDNAKNTVYLQMNSLKPDDTAVYYCNADREYKWYFRYDYWGQGTQVTVSS | low polyreactivity
4 | QVQLVESGGGLVQAGGSLRLSCAASGGTFRVYAMGWYRQAPGKERELVAAISGGGRTYADSVKGRFTISRDNAKITVYLQMNSLKPEDTAVYYCNTRRYYRVTTVKRYDYWGQGTQVTVSS | high polyreactivity
5 | QVQLVESGGGLVQAGGSLRLSCAASGSTFGGNAMGWYRQAPGKERELVAGITSSGTSTYYADSVKGRFTISRDNAKNTVYLQMNSLKPEDTAVYYCATDEADESYGFELFDYWGQGTQVTVSS | low polyreactivity
6 | QVQLVESGGGLVQAGGSLRLSCAASGRIFRAYAMGWYRQAPGKEREFVAAITWSGGSTYYADSVKGRFTISRDNAKNTVYLQMNSLKPEDTAVYYCAARGYSYRRRSQQFDYWGQGTQVTVSS | high polyreactivity
7 | QVQLVESGGGLVQAGGSLRLSCAASGSIFITYAMGWYRQPPGKERELVATITSRSGGTYYADSVKGRFTISRDNAQNTVYLQMNSLKPEDTAVYYCNAVYTYPVFHGMGYWGQGTQVTVSS | high polyreactivity
8 | QVQLVESGGGLVQAGGSLRLSCAASGSIFAVYTMGWYRQAPGKEREFVAAITKSGGRTYYADSVKGRFTISRDNAKNTVYLQMNSLNPEDTAFYYCARRRTIPYTLVDYDSWGQGTQVTVSS | low polyreactivity
9 | QVQLVESGGGLVQAGGRLRLSCAASGRIFYVYAMGGYRQAPGKERELVAAISRGGSTNSADSVKGRFTISRDNAKNTVYLQMNSLKPEDTAVYYCAASSLPHYSYRHSYLYVYWGQCTQVTVSS | low polyreactivity
10 | QVQLVESGGGLVQAGGSLRLSCAASGSTFGGYAMGWYRQEPGKERELVAAISSRGARTYYADSVKGRFTISRDNAKKTVYLQMNSLKPEDTAVYYCAARGPLDRYGYWGQGTQVTVSS | high polyreactivity
11 | QVQLVESGGGLVQAGGSLRLSCAASGGTIAGYAMGWYRQAPGKARELVASISDGGSTNYADSVKGRFTISRDNAKNTVYLQMNSLKPEDTAVYYCAVQGSRTENYDWYYYWGQGTQVTVSS | low polyreactivity
12 | QVQLVESGGGLVQAGGSLRLSCAASGSIFSGNAMGWYRQAPGKERELVASINRSGGSTYYADSVKGRFTISRDNAKNTVYLQMNSLKTEDTAVYYCAARRVWLAGYDSWGQGTQVTVSS | low polyreactivity
13 | QVQLVESGGGLVQAGGSLRLSCAASGRTYGFNVMGWYRQAPGKERELVAAISWSGGSTYYADSVKGRFTISRDNEKNTVYLQMNSLKPEDTAVYYCNKRYVHRYGYWGQGTQVTVSS | low polyreactivity
14 | QVQLVESGGGLVQAGGSLRLSCAASGSIFVTYAMGWYRQAPGKERELVASISWRGVSTRYADSVKGRFTISRDNAKNTVYLQMNSLKPEDTAVDYCAAVYRRTRSGIFDYWGQGTQVTVSS | high polyreactivity
15 | QVQLVESGGGLVQAGGSLRLSCAASGRIFVYYAMGWNRQAPGKERELVAAISSSGGSTYYADSVKGRFTISRDNAKNTVYLQMNSLKPEDTAVYYCNAVTSVQARPRNYYYWGQGTQVTVSS | high polyreactivity
16 | QVQLVESGGGLVQAGGSLRLSCAASGITFGSYAMGWYRQAPGKERELVAAISRSGGSTYYADSVKGRFTISRDNAKNTVYLQMNSLKPEDTAVYYCAVRYVYYREGDYWGQGTQVSVSS | high polyreactivity
17 | QVQLVESGGALVQAGGSLRLSCAASGSLFERYAMGWYRQAPVKEREFVATITSGGGRTYYADSVKGRFTISRDNAKNTVYLQMNSLQPEDTAVYYCTAVYRARSYDYWGQGTQVTVSS | high polyreactivity
18 | QVQLVESGGGLVQAGGSLRLRCAASGSTCFLYAMGWYRQAPGKEMELVASISDGSSTNYADSVKGRFTISRDNAKNTVYLQMNSLKPEDTAVYYCDAARWYAHRVDYWGQGTQVTVSS | low polyreactivity
19 | QVQLVESGGGLVQAGVSLRLSCAASGFIIYGNAMGWYRQAPGKERELVAAINQTGSSTYADSVKGRFTISRDNAKNTVYLQMNSLKPEATAVYYCNKGSWYFFLYDYWGQGTQVTVSS | low polyreactivity
20 | QVQLVESGEGLVQAGGSLSLSCAASGRIFYAYVMGWYRQAPGKERELVAAIDRRSTYYADSVKRRFTISRDNAKNTVFFQMNSLKPEDTAVYYCAARSTYSYYIRGYWGLGTQVTVSS | high polyreactivity
21 | QVQLVESGGGLVQAGGSLRISCAASGSIFASNAMGWYRQAPGKEREFVAAITWRTDRTYYADSVKGRFTISRDNAKNTVYLQMNSLKPEDTAVYYCAADTWFYRFYYWGQGTQVTVSS | high polyreactivity
22 | QVQLVESGGGLVQAGGSLRLSCAASGLIFSYYAMGWYRQAPGKERELVAAITGSGGSTYYADSVKGRFTISRDNAKNTVYLQMNSLKPEDTAVYYCAAGRYAYTLSRKYDYWGQGTQVTVSS | high polyreactivity

Row | Sequence | polyreactivity (PSR sort gate)
23 | QVQLVESGGGLVQAGGSLRLSCAASGSTFRYYVMGWYRQAPGKERELVARITSAASTNYADSVKGRFTISRDNAKNTVYLQMNSLKPEDTAVYYCAARKYGSRYRLKYDYWGQGTQVTVSS | high polyreactivity
24 | QVQLVESGGGLVQAGGSLRLSCAASGFTNAMGWYRQAPGKERELVAAISYSGDSTNYADSVKGRFTISRDNAKNTVYLQMNSLKPEDSAVYYCNASSPYDYDWGQGTQVTVSS | low polyreactivity
25 | QVQLVESGGGLVQAGGSLRLSCAASGRTFFSYAMGWYRQAPGKEMELVAAISGSGGSTYYADSVKGRFTISRDNAKNTVYLQMNSLKPEDTAVYYCNAYQTTRGLDYWGQGTQVTVSS | low polyreactivity
26 | QVQLVESGGGLVQAGGSLRLSCAASGRTFKKYAMGWYRQAPGKERELVSAITGSVGSTYYADSVKGRFTISRDNAKNTVYLQMNSLIPEDTAVYYCAAYAYGVWHSQDGGNYWGQGTQVTVSS | low polyreactivity
27 | QVQLVESGGGLVQAGGSLRLSCAASGRTFDVYAMGWYRQAPGKERELVATISYRSARTYYADSVKGRFTISRDNAKNTVYLQMNSLKPEDTAVYYCAAYFETWHGVGYWGQGTQVTVSS | high polyreactivity
28 | QVQNVESGRGLVQAGGSLRISCAASGDYAMGWSIQAPGTERELVAAISRRGGSTYYADSVKGRFTISRDNAKNTVYLQMNSLKQDDTAVYSCAADYSSRNRGNRYRLDYWGQGTQVTVSS | high polyreactivity
29 | QVQLVDSGGGLVQSGGSLSLSCAASGFNFWPYAMGWYREAPGKEREFVAAITRTGGSTSYADSVKGRFTISRDNAKNTVYLQINSLKPEDTAVYYCAATSYYRTNYGLVFQYRRNYGGQGTQVTVSS | high polyreactivity
30 | QVQLVESGGGLVQAGGSLRLSCAASGRIFGVNAMGWYRQAPGKERELVAAISVSGDSTYYADSVKGRFTISRDNAKNTVYLQMNSLKPEDTAVYYCNAGYTFVPADLTDEYYWGQGTQVTVSS | low polyreactivity
31 | QVQRVESGGGLVQAGCSLRLSCAATGSTFRDYTMGGYRQEPGKERELVADITWRSGRTYYADSVMGRFTISRDYAMNTVYLQMNSLKPEDTAVYYCAAATRVKVNGLYSYYYRYDYWGLGTQVTVSS | high polyreactivity
32 | QVQLVESGGGLVQAGGSLRLSCAASGRTFRSYAMGWYRQAPGKERELVAAISQRGGSTYYADSVKGRFTISRDNAKNTVYLQMNSLKPEDTAVYYCATPVRSGYDYWGQGTQVTVSS | high polyreactivity
33 | QVQLVESGGGLVQAGGSLRLSCAASGLIFQVYDMGWYRQAPGKERELVAATSSGSKTNYADSVKGRFTISRDNAKNTVYLQMNSLKPEDTAVYYCAAGGPSTLDDYWGQGTQVTVSS | low polyreactivity
34 | QVHLVESGGGLVQAGGSLRLSCAASGFIFGSNAMGWSRQAPGKERELVAAITYSGASTYYADSVKGRFTISRDNAKNTVYLQMNSLKPEDTAVYYCNAVYSSVVDGSEGFDYWGQGTQVTVSS | low polyreactivity
35 | QVQIVESGGGLVQAGGSLRLSCAASGGILYYYVMGWYRQAPGKERELVADISRGGSTNYADSVKGRFTISRDNAKNTVYFQMNSLKPEDTAVYYCADQDGLKQYTFDYWGQGTQVSVSS | low polyreactivity
36 | QVQLVETGGGLVQAGGSLRLSCAASGLIFSYKAMGWYRQAPGKERELVGAISRGGSTYYADSVKGRFTISRDNAKNTVYLQMNSLKRVDTAVYYCAADFYGWVDYWGQGTQVTVSS | high polyreactivity
37 | QVQLVESGGGLVQAGGSLRLSCAASGIIFAYYAMGGYRHAPGKERELVAAISRSGGITYYADSVKGRFSISRDNAKNTVYLQMNSLKPEDTAVYDCARFSSRPYDYWGQGTQVTVSS | high polyreactivity
38 | QVQLVETGGGLVQAGGSLRLSCAASGFIFVDYAMGWYRPAPGKERELVAAITSNDDRTYYADSVKGRFTISRDNAKNTVYLQMNSLKPEDTAVYYCAAGGWGATADATFTYLYDYWGQGTQVTVSS | low polyreactivity
39 | QVQLVESGGGLVQAGGSLRLSWAASGFTFNRYAMGWYRQAPGKERELVAAISGSGASTYYADSVKGRFTISRDNAKNTVYLQMNSLKPEDTAVYYCATRYSRSYRSRDYYYWGQGTQVTVSS | high polyreactivity
40 | QVQLVESGGGLVQAGGSLRLSCAASGSTFYPYAMGWYRQAPGKERELVAAITSGGRTYYADSVKGRFTISRDNAKNTVYLQMNSLKPEDTAVYYCAAVYINRLTSKYEYWGQGTQVTVSS | high polyreactivity
41 | QVQLRESGCGLVQAGGNLRLSCAARGNIFDADIMGWYRQAPGKERELVASITDGGSTNYADSVRCRFTISRDNAKNTVYLQMNSLKPEDTAVYYCTAIAYPDIPTYFDHDSDYFYWGQGTQVTVSS | high polyreactivity
42 | QVQLVESGGGLVQAGGSLRLSCAASGFIFAYYAMGWYRQAPGKERELVAAISSRGGTYYADSVKGPFTISRDNAKNTVYLQMNSLKPEDTAVYYCAAASYTWVSLGYEYWGQGTQVTVSS | high polyreactivity
43 | QVQLVESGGGLVPAGGSLRLSCAASGRTLGYNAMGWYRQAPGKERELVAAISRGDSTNYADSVKGRFTISRDNAKNTVYLQMNSLKPEDTAVYYCAAAFPRYRSRAIRVDYWGQGTQVTVSS | high polyreactivity

Source: the nanobody polyreactivity screen of Harvey et al. (2022)
